Measurements taken from patent US12356911B2, “Group of UDP-glycosyltransferase for catalyzing carbohydrate chain elongation and application thereof” (GSYNBIOT (SHANGHAI) CO., LTD, priority 2017, dated 2025).

Assays:
Assay type in all cases: biochemical
[1] = In vitro transglycosylation at C-3, Rd as glycosyl acceptor, UDP-xylose as donor; conditions: crude enzyme (E. coli lysate supernatant); TLC, FIG. 14
[2] = In vitro transglycosylation at C-3, Rh2 as glycosyl acceptor, UDP-glucose as donor; conditions: crude enzyme (E. coli lysate supernatant); TLC, FIG. 13, FIG. 15
Text: Cell lysate of recombinant E. coli with empty vector pET28a was used as a control.

[3] = In vitro transglycosylation at C-6, Rg1 as glycosyl acceptor, UDP-xylose as donor; conditions: crude enzyme (E. coli lysate supernatant); TLC and HPLC, FIG. 7-9

B1: GT29-19: Ginseng UDP-glycosyltransferase, 442 amino acids, SEQ ID NO: 116 (protein)
chain: MDNQEGRISIALLPFLAHGHISPFFELAKQLAKRNCNVFLCSTPINLSSIKNKDSSASIKLVELHLPSSPDLPPHYHTTNGLPSHLMVPLINAFETAGPTFSEILKTLNPDLLIYDFNPSWAPEIASSHNIPAVYFLTTAAASSSIGLHAFKNPGEKYPFPDFYDNSNNTPEPPSADNMKLLHDFIACFERSCDIILIKSFIELEGKYIDLLSTLSDKTLVPVGPLVQDPMGHNEDPKTEQIINWLDKRAESTVVFVCFGSEYFLSNEELEEVAIGLEISMVNFIWAVRLIEGEKKGVLPEGFVQRVGDRGLVVEGWAPQARILGHSSTGGFVSHCGWSSITESMKFGVPVIAMARHFDQPLNAKLAAEVGVGMEVVRDENGKYKREDIAGVIRKVVVEKSGEVIRRKARELSEKMKEIGEQLIDRAVEELVQICKKKKDEQ
modifications: misc_feature - GT29-19; Panax ginseng
product formation from Rd and UDP-xylose (replacement of second glucose at C-3 with xylose) [1]: can all catalyze the replacement of the second glucose at C-3 position of Rd with xylose | product formation from Rh2 and UDP-glucose (Rg3) [2]: can all catalyze the extension of a glucosyl at the C-3 glycosyl of Rh2 to generate Rg3

B2: GT29-20: Ginseng UDP-glycosyltransferase, 442 amino acids, SEQ ID NO: 118 (protein)
chain: MDNQKGRISIALLPFLAHGHISPFFELAKQLAKRNCNVFLCSTPINLSSIKDKDSSASIKLVELHLPSSPDLPPHYHTTNGLPSHLMLPLRNAFETAGPTFSEILKTLNPDLLIYDFNPSWAPEIASSHNIPAVYFLTTAAASSSIGLHAFKNPGEKYPFPDFYDNSNITPEPPSADNMKLLHDFIACFERSCDIILIKSFRELEGKYIDLLSTLSDKTLVPVGPLVQDPMGHNEDPKTEQIINWLDKRAESTVVFVCFGSEYFLSNEELEEVAIGLEISTVNFIWAVRLIEGEKKGILPEGFVQRAGDRGLVVEGWAPQARILGHSSTGGFVSHCGWSSIAESMKFGVPVIAMARHLDQPLNGKLAAEVGVGMEVVRDENGKYKREGIAEVIRKVVVEKSGEVIRRKARELSEKMKEKGEQEIDRALEELVQICKKKKDEQ
modifications: misc_feature - GT29-20; Panax ginseng
product formation from Rd and UDP-xylose (replacement of second glucose at C-3 with xylose) [1]: can all catalyze the replacement of the second glucose at C-3 position of Rd with xylose | product formation from Rh2 and UDP-glucose (Rg3) [2]: can all catalyze the extension of a glucosyl at the C-3 glycosyl of Rh2 to generate Rg3

B3: GT29-21: Ginseng UDP-glycosyltransferase, 442 amino acids, SEQ ID NO: 120 (protein)
chain: MDNQKGRISIALLPFLANGHISPFFELAKQLAKRNCNVFLCSTPINLSSIKDKDSSASIKLVELHLPSSPDLPPHYHTTNGLPSHLMLPLRNAFETAGPTFSEILKTLNPDLLIYDFNPSWAPEIASSHNIPAVYFLTTAAASSSIGLHAFKNPGEKYPFPDFYDNSNITPEPPSADNMKLLHDFIACFERSCDIILIKSFRELEGKYIDLLSTLSDKTLVPVGPLVQDPMGHNEDPKTEQIINWLDKRAESTVVFVCFGSEYFLSNEELEEVAIGLEISTVNFIWAVRLIEGEKKGILPEGFVQRVGDRGLVVEGWAPQARILGHSSIGGFVSHCGWSSIAESMKFGVPVIAMARHLDQPLNGKLAAEVGVGMEVVRDENGKYKREGIAEVIRKVVVEKSGEVIRRKARELSEKMKEKGEQEIDRALEELVQICKKKKDEQ
modifications: misc_feature - GT29-21; Panax ginseng
product formation from Rd and UDP-xylose (replacement of second glucose at C-3 with xylose) [1]: can all catalyze the replacement of the second glucose at C-3 position of Rd with xylose | product formation from Rh2 and UDP-glucose (Rg3) [2]: can all catalyze the extension of a glucosyl at the C-3 glycosyl of Rh2 to generate Rg3

B4: GT29-22: Ginseng UDP-glycosyltransferase, 442 amino acids, SEQ ID NO: 122 (protein)
chain: MDNQKGRISIALLPFLAHGHISPFFELAKQLAKRNCNVFLCSTPINLSSIKDKDSSASIKLVELHLPSSPDLPPHYHTTNGLPSHLMLPLRNAFETAGPTFSEILKTLNPDLLIYDFNPSWAPEIASSHNIPAVYFLTTAAASSSIGLHAFKNPGEKYPFPDFYDNSNITPEPPSADNMKLLHDFIACFERSCDIILIKSFRELEGKYIDLLSTLSDKTLVPVGPLVQDPMGHNEDPKTEQIINWLDKRAESTVVFVCFGSEYFLSNEELEEVAIGLEISTVNFIWAVRLIEGEKKGILPEGFVQRVGDRGLVVEGWAPQARILGHSSTGGFVSHCGWSSIAEIMKFGVPVIAMARHLDQPLNGKLAAEVGVGMEVVRDENGKYKREGIAEVIRKVVVEKSGEVIRRKARELSEKMKEKGEQEIDRALEELVQICKKKKDEQ
modifications: misc_feature - GT29-22; Panax ginseng
product formation from Rd and UDP-xylose (replacement of second glucose at C-3 with xylose) [1]: can all catalyze the replacement of the second glucose at C-3 position of Rd with xylose | product formation from Rh2 and UDP-glucose (Rg3) [2]: can all catalyze the extension of a glucosyl at the C-3 glycosyl of Rh2 to generate Rg3

B5: GT29-11: Ginseng UDP-glycosyltransferase, 446 amino acids, SEQ ID NO: 20 (protein)
chain: MDNQKGRISIVMLPFLAHGHISPFFELAKHLSKRNCNIFLCSTPINLSSIKNRISDKDSSASIKLVELHLPSSPDLPPHYHTTNGLPSHLMVPLINAFETAGPTFSEILKTLNPDLLIYDFNPSWAPEIASSHNIPAVYFLTTAAASSSIGLHAFKNPGEKYPFPDFYDNSNNTPEPPSADNMKLLHDFIACFERSCDIILIKSFIELEGKYIDLLSTLSDKTLVPVGPLVQDPMGHNEDPKTEQIINWLDKRAESTVVFVCFGSEYFLSNEELEEVAIGLEISMVNFIWAVRLIEGEKKGVLPEGFVQRVGDRGLVVEGWAPQARILGHSSTGGFVSHCGWSSIAESMKFGVPVIAMARHLDQPLNGKLAAEVGVGMEVVRDENGKYKREGIAEVIRKVVVEKSGEVMRRKARELSEKMKEKGEEEIDRAVEELVQICKKKKDAQ
modifications: misc_feature - GT29-11; Panax ginseng
product formation from Rg1 and UDP-xylose (notoginsenoside R1) [3]: can catalyze the formation of Notoginsenoside RI

B6: GT29-9: Ginseng UDP-glycosyltransferase, 446 amino acids, SEQ ID NO: 18 (protein)
chain: MDNQKGRISIVMLPFLAHGHISPFFELAKHLSKRNCNIFLCSTPINLSSIKNRISDKDSSASIKLVELHLPSSPDLPPHYHTTNGLPSHLMVPLRNAFETAAPTFSEILKTLNPDLLIYDFNPSWAPEIASSHNIPAVCFIIGGAASFSMSLHSFKNPGEKYPFLDFDDNSNITPEPPSADNMKLLLDFMTCFERSCDIILIKSFRELEGKYFDFYSTLSDKTLVPVGPLVQDPMGHNEDPKTEQFINWLDKRAESTVVFVCFGSEYFLSNEELEEVAIGLEISMVNFIWAVRLIEGEKKGVLPEGFVQRVGDRGLVVEGWAPQARILGHSSTGGFVSHCGWSSIAESMKFGVPVIAMARHLDQPLNGKLAAEVGVGMEVVRDENGKYKREDIAGVIRKVVVEKSGEVIRRKARELSEKMKEIGEQLIDRAVEELVQICKKKKDEQ
modifications: misc_feature - GT29-9; Panax ginseng
product formation from Rg1 and UDP-xylose (notoginsenoside R1) [3]: can catalyze the formation of Notoginsenoside RI

B7: GT29-13: Ginseng UDP-glycosyltransferase, 446 amino acids, SEQ ID NO: 22 (protein)
chain: MDNQKGRISIVMLPFLAHGHISPFFELAKHLSKRNCNIFLCSTPINLSSIKNRISDKDSSASIKLVELHLPSSPDLPPHYHTTNGLPSHLMVPLRNAFETAAPTFSEILKTLNPDLLIYDFNPSWAPEIASSHNIPAVCFIIGGAASFSMSLHSFKNPGEKYPFLDFDDNSNITPEPPSADNMKLLLDFMTCFERSCDIILIKSFRELEGKYFDFYSTLSDKTLVPVGPLVQDPMGHNEDPKTEQFINWLDKRAESTVVFVCFGSEYFLSNEELEEVAIGLEISMVNFIWAVRLIEGEKKGVLPEGFVQRVGDRGLVVEGWAPQARILGHSSTGGFVSHCGWSSITESMKFGVPVIAMARHFDQPLNAKLAAEVGVVMEVVRDENGKYKREDIAGVIRKVVVEKSGEVIRRKARELSEKMKEIGEQLIDRAVEELVQICKKKKDEQ
modifications: misc_feature - GT29-13; Panax ginseng
product formation from Rg1 and UDP-xylose (notoginsenoside R1) [3]: can catalyze the formation of Notoginsenoside RI

B8: GT29-18: Ginseng UDP-glycosyltransferase, 446 amino acids, SEQ ID NO: 26 (protein)
chain: MDNQKGRISIVMLPFLAHGHISPFFELAKHLSKRNCNIFLCSTPINLSSIKNRISDKDSSASIKLVELHLPSSPDLPPHYHTTNGLPSHLMVPLRNAFETAAPTFSEILKTLNPDLLIYDFNPSWAPEIASSHNIPAVCFIIGGAASFSMSLHSFKNPGEKYPFLDFDDNSNITPEPPSADNMKLLLDFMTCFERSCDIILIKSFRELEGKYFDFYSTLSDKTLVPVGPLVQDPMGHNEDPKTEQFINWLDKRAESTVVFVCFGSEYFLSNEELEEVAIGLEISMVNFIWAVRLIEGEKKGVLPEGFVQRVGDRGLVVEGWAPQARILGHSSTGGFVSHCGWSSITESMKFGVPVIAMARHFDQPLNAKLAAEVGVGMEVVRDENGKYKREDIAGVIRKVVVEKSGEVMRRKARELSEKMKEKGEEEIDRAVEELVQICKKKKDAQ
modifications: misc_feature - GT29-18; Panax ginseng
product formation from Rg1 and UDP-xylose (notoginsenoside R1) [3]: can catalyze the formation of Notoginsenoside RI

B9: GT29-17: Ginseng UDP-glycosyltransferase, 442 amino acids, SEQ ID NO: 24 (protein)
chain: MDNQEGRISIALLPFLAHGHISPFFELAKQLAKRNCNVFLCSTPINLSSIKNKDSSASIKLVELHLPSSPDLPPHYHTTNGLPSHLMVPLINAFETAGPTFSEILKTLNPDLLIYDFNPSWAPEIASSHNIPAVCFIIGGAASFSMSLHSFKNPGEKYPFLDFDDNSNITPEPPSADNMKLLLDFMTCFERSCDIILIKSFRELEGKYFDFYSTLSDKTLVPVGPLVQDPMGHNEDPKTEQFINWLDKRAESTVVFVCFGSEYFLSNEELEEVAIGLEISMVNFIWAVRLIEGEKKGVLPEGFVQRVGDRGLVVEGWAPQARILGHSSTGGFVSHCGWSSITESMKFGVPVIAMARHFDQPLNAKLAAEVGVGMEVVRDENGKYKREDIAGVIRKVVVEKSGEVIRRKARELSEKMKEIGEQLIDRAVEELVQICKKKKDEQ
modifications: misc_feature - GT29-17; Panax ginseng
product formation from Rg1 and UDP-xylose (notoginsenoside R1) [3]: can catalyze the formation of Notoginsenoside RI
